Assay results published in patent US20090098530A1 (CRUCELL HOLLAND B V, published 2009).

Target: T1, human angiotensin-converting enzyme 2 (ACE2 protein) expressed on stably transfected PER.C6 cells (human, UniProt Q9BYF1 18-805)
T1 construct: also called human ACE2 receptor; PER.C6-ACE2
Assay: flow cytometry on ACE2-transfected PER.C6 clones

T1 sequence (Q9BYF1 18-805 limits assumed): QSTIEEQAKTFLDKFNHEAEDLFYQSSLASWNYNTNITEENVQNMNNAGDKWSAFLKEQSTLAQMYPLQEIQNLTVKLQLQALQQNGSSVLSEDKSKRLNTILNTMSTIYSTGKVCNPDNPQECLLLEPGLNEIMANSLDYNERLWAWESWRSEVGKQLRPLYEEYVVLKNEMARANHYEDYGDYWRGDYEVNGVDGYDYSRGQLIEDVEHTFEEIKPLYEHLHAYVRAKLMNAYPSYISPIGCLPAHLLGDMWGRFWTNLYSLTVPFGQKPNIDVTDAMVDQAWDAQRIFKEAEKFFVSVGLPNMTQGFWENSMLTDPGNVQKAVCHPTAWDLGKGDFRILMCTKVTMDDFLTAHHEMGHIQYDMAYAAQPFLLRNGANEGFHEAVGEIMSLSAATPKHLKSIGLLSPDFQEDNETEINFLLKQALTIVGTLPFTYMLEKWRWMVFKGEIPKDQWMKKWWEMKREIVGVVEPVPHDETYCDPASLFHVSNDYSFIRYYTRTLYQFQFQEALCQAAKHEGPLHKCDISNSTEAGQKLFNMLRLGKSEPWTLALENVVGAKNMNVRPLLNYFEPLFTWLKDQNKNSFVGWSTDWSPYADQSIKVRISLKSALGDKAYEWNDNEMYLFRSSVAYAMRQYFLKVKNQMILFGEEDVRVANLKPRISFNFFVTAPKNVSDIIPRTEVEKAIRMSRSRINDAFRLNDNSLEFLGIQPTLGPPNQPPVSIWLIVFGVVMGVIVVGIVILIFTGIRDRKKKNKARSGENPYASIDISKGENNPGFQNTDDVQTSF

B1: wild-type SARS-CoV Frankfurt 1 S318-510 fragment, myc/His-tagged (ligand)
chain: not shown
binding result: binds
